The values that follow come from patent US20150141617A1, “PRODUCTION AND PURIFICATION OF ACTIVE EUKARYOTIC FORMYLGLYCINEGENERATING ENZYME (FGE) VARIANTS” (Universität Bielefeld, priority 2013, published 2015).

In the series the test system is cysteine-containing substrate peptide. Kind of series: In vitro FGE activity assay with conditioned media from CHO-FD11 cells. It is filed as biochemical. To be noted: 5 mM GSH vs 2 mM DTT, pH 9.3, conditioned media. How it is done: FGE activity was assayed using conditioned media that contained either secreted fl-FGE (obtained from CHO-FD FGE-His6 cells) or Δ72-FGE (obtained from CHO-FD Tet-On cells after transient co-transfection with pBI-FGE-HA and pIRES-Furin constructs). After expression for 48 h at 1% or 2.5% FCS containing DMEM, the medium was collected and centrifuged at 500×g for 5 min. The supernatant was analyzed by SDS-PAGE and western blotting and aliquots were directly used for activity testing.
The activity assay was performed in triplicates with three sets of conditioned media at pH 9.3 under standard conditions as described earlier (4) with some modifications; no BSA was added to the reaction mixture and 2 mM DTT or 5 mM GSH were used as reducing agents.
The inventors have recently shown that the N-terminal part of FGE (residues 34-68) is essential to activate sulfatases in vivo (12). By contrast, the N-terminal extension was not required for in vitro FGly-generating activity of purified secreted Δ72-FGE. […] To assess the physiological consequence of the N-terminal truncation by furin on the function of FGE, the inventors analyzed the FGly-generating activity of the processed and the unprocessed forms of secreted FGE in the presence of glutathione (GSH), a physiological reductant, or DTT serving as a control. […]

B1: FGE: human wild type full length formylglycine generating enzyme with RYSR furin cleavage motif, SEQ ID NO:2 (protein)
chain: ADEFSQEAGTGAGAGSLAGSCGCGTPQRPGAHGSSAAAHRYSREANAPGPVPGERQLAHSKMVPIPAGVFTMGTDDPQIKQDGEAPARRVTIDAFYMDAYEVSNTEFEKFVNSTGYLTEAEKFGDSFVFEGMLSEQVKTNIQQAVAAAPWWLPVKGANWRHPEGPDSTILHRPDHPVLHVSWNDAVAYCTWAGKRLPTEAEWEYSCRGGLHNRLFPWGNKLQPKGQHYANIWQGEFPVTNTGEDGFQGTAPVDAFPPNGYGLYNIVGNAWEWTSDWWTVHHSVEETLNPKGPPSGKDRVKKGGSYMCHRSYCYRYRCAARSQNTPDSSASNLGFRCAADRLPTMDSGRGSHHHHHHH
modifications: cloned matured acitve full length FGE with 6x His tag on C-terminus
For B1, the “FGly-generating activity (% substrate turnover) in the presence of GSH normalized to that of DTT (100%)” value is “as active with GSH as with DTT”.
